A short description of one data set: DSC. Particulars: glycan changed form; control: BG505 NFL.664 from HEK 293F, natural glycoforms.
In the next data set the target is BG505 SOSIP.664. The experiment in a line: BLI. On the technique in general: In BLI a coated tip is dipped into the sample, and binding shifts an interference pattern.
For data set [1], the target named is BG505 NFL.664 (native flexibly linked, cleavage-independent soluble HIV Env trimer) (HIV-1 isolate BG505 (clade A)). The experiment in a line: cryo-EM structure.
Data set [2] shares this target. The experiment in a line: crystal structure.

Regarding “BG505 NFL.664 Env trimer: kifunensine and swainsonine (oligomannose only)”, in “DSC”, the “stability_or_folding, Tm” value is “no change, 66.6 vs 65.8”.
Usually Kd stands for the equilibrium constant for the complex coming apart. A low value points to a tighter complex. The term koff denotes the first-order rate constant of dissociation. Read a low koff as a long-lived complex. In the data set with BG505 SOSIP.664, PGT121 Fab yielded a Kd of 58.5 nM and an off-rate (koff) of 0.00033 s⁻¹.
For the substance PGT124 Fab, in the data set with BG505 SOSIP.664, the Kd is 38.3 nM and the koff amounted to 0.00059 s⁻¹.
Broadly, the stoichiometry N is the number of molecules, sites or subunits per partner or assembly. With “BG505 NFL.664 (native flexibly linked, cleavage-independent soluble HIV Env trimer)”, the stoichiometry N in data set [1] and in data set [2] was 3 throughout.

Values taken from publication PMC5955915.
